# B1: Guanyl-specific ribonuclease Sa, P05798 (parent)
# chain: DVSGTVCLSALPPEATDTLNLIASDGPFPYSQDGVVFQNRESVLPTQSYGYYHEYTVITPGARTRGTRRIITGEATQEDYYTGDHYATFSLIDQTC
# Variants of: B1
# Settings: Kitasatospora aureofaciens, pH 7, Thermal, CD, MOPS 30 mM, reversible: yes(>95%), structure 1RGG, whole UniProt chain shown; for ddG of mutation (higher = less stable): 48.4 °C
Variant,ddG of mutation (higher = less stable) [kcal/mol],Tm [°C],"change of melting temperature, mutant - wild type (higher = more stable) [°C]",unfolding enthalpy (van 't Hoff) [kcal/mol]
T72V,0.2,47.6,-0.8,91
T16V,-0.3,49.4,1,88
T5V,0,,,
V43T,0.5,46.8,-1.6,93
V57T,4.4,33.4,-15,74
T82V,1.7,42.7,-5.7,81
T56V,1.9,42.1,-6.3,85
T67V,0,48.3,-0.1,88
T59V,1.7,42.8,-5.6,81
T18V,1.4,43.7,-4.7,80
V2T,0.9,45.2,-3.2,86
V36T,1.3,43.8,-4.6,88

# From FireProtDB (doi:10.1074/jbc.m304177200)
